pKd: −log10 of the molar value.
Tests used:
[1] = target: plasminogen (Homo sapiens) (UniProt P00747); details: cited from earlier work
[2] = target: recombinant mature PAM (Asn1-Gln351, plus (His)6) (Streptococcus pyogenes (GAS) strain AP53) (UniProt P49054)
[3] = target: recombinant streptococcal enolase (Sen) from GAS strain AP53 (Streptococcus pyogenes (GAS) strain AP53)
[4] = target: recombinant streptococcal enolase (Sen) from GAS strain AP53 (Streptococcus pyogenes (GAS) strain AP53); test: ELISA; Sen coated on high protein binding 96-well plates overnight at 4°C; hPg added at 25°C for 1 h; detected with HRP-conjugated monoclonal mouse-anti hPg; saturation curve
[5] = target: recombinant streptococcal enolase (Sen) from GAS strain AP53 (Streptococcus pyogenes (GAS) strain AP53); test: SPR; Sen amine-coupled to a CM-5 chip (~1,000 RU); hPg as analyte, 9 to 2,400 nM; 25°C, HBS-EP+ (10 mM Na-Hepes/150 mM NaCl/3 mM EDTA/0.05% polysorbate 20, pH 7.4); equilibrium (affinity) fit
[6] = target: recombinant streptococcal enolase (Sen) from GAS strain AP53 (Streptococcus pyogenes (GAS) strain AP53); test: SEC-MALS; each protein 100 μl of 1 mg/ml on a WTC-030S5 column, PBS, pH 7.4, flow rate 0.5 ml/min
[7] = target: recombinant streptococcal enolase (Sen) from GAS strain AP53 (Streptococcus pyogenes (GAS) strain AP53); test: AUC; sedimentation velocity, 20°C, 50 mM Na phosphate/0.1 M NaCl, pH 7.4; 30,000 rpm for Sen, 35,000 rpm for hEno; three protein dilutions; no concentration-dependent dissociation down to at least 0.1 mg/ml

Chain of recombinant streptococcal enolase (Sen) from GAS strain AP53 (Streptococcus pyogenes (GAS) strain AP53) (A2RFE3 whole entry): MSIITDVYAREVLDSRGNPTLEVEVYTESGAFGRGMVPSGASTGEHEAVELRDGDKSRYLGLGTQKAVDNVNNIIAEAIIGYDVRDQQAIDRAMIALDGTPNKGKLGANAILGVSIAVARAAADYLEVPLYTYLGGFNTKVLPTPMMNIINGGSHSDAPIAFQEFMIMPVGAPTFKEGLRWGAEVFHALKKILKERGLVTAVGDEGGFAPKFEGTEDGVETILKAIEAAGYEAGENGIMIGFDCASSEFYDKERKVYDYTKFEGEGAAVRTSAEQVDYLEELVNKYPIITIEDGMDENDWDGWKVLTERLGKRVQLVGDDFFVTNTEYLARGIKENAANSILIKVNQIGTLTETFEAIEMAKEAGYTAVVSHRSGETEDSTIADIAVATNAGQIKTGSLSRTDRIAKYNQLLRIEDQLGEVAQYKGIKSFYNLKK
Chain of UniProt P00747 (P00747 20-810): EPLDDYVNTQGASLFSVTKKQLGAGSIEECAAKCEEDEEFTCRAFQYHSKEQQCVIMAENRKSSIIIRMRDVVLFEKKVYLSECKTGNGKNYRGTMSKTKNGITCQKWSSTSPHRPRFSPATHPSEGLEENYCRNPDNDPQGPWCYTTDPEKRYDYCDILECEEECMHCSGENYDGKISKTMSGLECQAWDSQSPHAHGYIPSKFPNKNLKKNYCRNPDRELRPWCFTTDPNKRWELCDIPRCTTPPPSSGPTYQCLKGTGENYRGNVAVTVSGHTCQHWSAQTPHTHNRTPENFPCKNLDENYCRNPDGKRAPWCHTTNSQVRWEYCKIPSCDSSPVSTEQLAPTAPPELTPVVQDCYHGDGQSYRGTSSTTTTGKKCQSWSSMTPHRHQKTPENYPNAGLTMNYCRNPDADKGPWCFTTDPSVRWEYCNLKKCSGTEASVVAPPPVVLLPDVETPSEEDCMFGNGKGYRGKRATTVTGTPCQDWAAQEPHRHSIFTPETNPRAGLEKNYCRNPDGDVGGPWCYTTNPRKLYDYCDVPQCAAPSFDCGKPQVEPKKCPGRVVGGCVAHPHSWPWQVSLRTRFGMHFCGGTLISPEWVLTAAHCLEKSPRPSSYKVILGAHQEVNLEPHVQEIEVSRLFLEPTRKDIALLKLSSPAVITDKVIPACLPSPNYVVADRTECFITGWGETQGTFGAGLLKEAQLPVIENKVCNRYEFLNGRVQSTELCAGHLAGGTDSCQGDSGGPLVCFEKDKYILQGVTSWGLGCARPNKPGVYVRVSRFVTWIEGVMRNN

With “plasminogen-binding M-protein (PAM) (from UniProt P49054)” as the substance, how does the pKd [1] read?
Its pKd is 9.00.

For “recombinant human plasminogen (hPg) (natural protein)”, which rate of activation of hPg by tPA on PAM-coated plates against free hPg, hydrolysis of S2251 [2] is on record?
Its rate of activation of hPg by tPA on PAM-coated plates against free hPg, hydrolysis of S2251 is 2.5 fold.

What about the rate of activation of hPg by tPA with Sen bound to DOPG vesicles against vesicles without Sen, hydrolysis of S2251 [3] of the same substance?
The rate of activation of hPg by tPA with Sen bound to DOPG vesicles against vesicles without Sen, hydrolysis of S2251 was 6 to 8 fold.

What about the C50 [4] of the same substance?
The C50 was 125 nM.

What about the C50 [5] of the same substance?
The C50 was 111 nM.

For “recombinant streptococcal enolase (Sen) from GAS strain AP53 (enzyme)”, which stoichiometry N [6] is on record?
The stoichiometry N was 8.

And the stoichiometry N [7]?
The stoichiometry N was 8.

Reference: publication PMC9173704
